Measurements as given in the RNAGym collection of RNA variant scans (doi:10.1021/acssynbio.7b00057).

B1: Pistol ribozyme (parent)
chain: GGGUCGUUGUUCCAUAAUCGCGUGGAUAUGGCACGCAAGUUUCUACCGGGCACCGUAAAUGUCCGACUGGAGCCGUUCGGGCGGCUAUAAACAGACCUCAGGCCCGAAGCGUGGCGGCACCUGCCGCCGGUGGUAAAAAAGAUCGGAAGAGCACACGUCU

Variants of: B1
Experiment: aptazyme ON/OFF ratio, guanine; higher = stronger switching; co-transcriptional cleavage with and without guanine

Going from U7C U8G G9U U10G U11G C12A C13G to U7C U8G G9U U10G U11G C12A C13U, the “aptazyme ON/OFF ratio” value rises from 1.05 to 1.19.

Going from U7C U8G G9U U10G U11G C12A C13A to U7C U8G G9U U10A U11A C12U, the “aptazyme ON/OFF ratio” value rises from 1.1 to 1.33.

First: U7C U8G G9U U10A U11A C12A
Second: U7C U8G G9U U10A U11A C12G
The “aptazyme ON/OFF ratio” value of the first is higher: 1.25 for the first, 1.11 for the second.

U7C U8G G9U U11G C12U and U7C U8G G9U U11G C12A are the same in “aptazyme ON/OFF ratio” value: 1.27 for the first, 1.27 for the second.

Going from U7C U8G G9U U11G C12G to U7C U8G G9U U10A U11C, the “aptazyme ON/OFF ratio” value falls from 1.35 to 1.04.

Compared with U7C U8G G9U U10A U11A, U7C U8G G9U U10A U11G is lower in “aptazyme ON/OFF ratio” value: 1.34 for the first, 1.22 for the second.

Going from U7C U8G G9U U10A U11C C13G to U7C U8G G9U U10A U11C C13U, the “aptazyme ON/OFF ratio” value falls from 1.05 to 1.02.

First: U7C U8G G9U U10A U11C C13A
Second: U7C U8G G9U U10C C12U C13A
The “aptazyme ON/OFF ratio” value of the first is lower: 1.05 for the first, 1.38 for the second.

First: U7C U8G G9U U10C C12U C13U
Second: U7C U8G G9U U10C C12U C13G
The “aptazyme ON/OFF ratio” value of the first is higher: 1.38 for the first, 1.32 for the second.

First: U7C U8G G9U U10C C12A C13A
Second: U7C U8G G9U U10C C12A C13U
The “aptazyme ON/OFF ratio” value of the first is higher: 1.41 for the first, 1.37 for the second.

First: U7C U8G G9U U10C C12A C13G
Second: U7C U8G G9U U10G U11G C12U C13U
The “aptazyme ON/OFF ratio” value of the first is lower: 1.19 for the first, 1.26 for the second.

Compared with U7C U8G G9U U10G U11G C12U C13A, U7C U8G G9U U10G U11G C12U C13G is lower in “aptazyme ON/OFF ratio” value: 1.2 for the first, 1.18 for the second.

Compared with U7C U8G G9U U11C C12G C13G, U7C U8G G9U U11C C12G C13U is higher in “aptazyme ON/OFF ratio” value: 1.17 for the first, 1.35 for the second.

Compared with U7C U8G G9U U11C C12G C13A, U7C U8G U10C U11A C12G C13U is lower in “aptazyme ON/OFF ratio” value: 1.26 for the first, 1.08 for the second.

First: U7C U8G U10C U11A C12G C13G
Second: U7C U8G U10C U11A C12G C13A
The “aptazyme ON/OFF ratio” value of the first is higher: 1.12 for the first, 1.07 for the second.

Compared with U7C U8G G9U U10C U11G C12G C13A, U7C U8G G9U U10C U11G C12G C13U is lower in “aptazyme ON/OFF ratio” value: 1.15 for the first, 1.08 for the second.

First: U7C U8G G9U U10C U11G C12G C13G
Second: U7C U8G G9U U10G U11C
The “aptazyme ON/OFF ratio” value of the first is higher: 1.15 for the first, 1.07 for the second.

Compared with U7C U8G G9U U10G U11A, U7C U8G G9U U10G U11G is higher in “aptazyme ON/OFF ratio” value: 1.13 for the first, 1.18 for the second.

Going from U7C U8G G9U U11A C12A C13U to U7C U8G G9U U11A C12A C13G, the “aptazyme ON/OFF ratio” value falls from 1.21 to 1.19.

First: U7C U8G G9U U11A C12A C13A
Second: U7C U8G G9U U10C U11G C12U C13U
The “aptazyme ON/OFF ratio” value of the first is lower: 1.32 for the first, 1.41 for the second.

Going from U7C U8G G9U U10C U11G C12U C13A to U7C U8G G9U U10C U11G C12U C13G, the “aptazyme ON/OFF ratio” value falls from 1.24 to 1.22.

Compared with U7C U8G U10A C13U, U7C U8G U10A C13A is lower in “aptazyme ON/OFF ratio” value: 1.46 for the first, 1.15 for the second.

Compared with U7C U8G U10A C13G, U7C U8G G9U U10C C12G is higher in “aptazyme ON/OFF ratio” value: 1.15 for the first, 1.29 for the second.

Compared with U7C U8G G9U U10C C12U, U7C U8G G9U U10C C12A is higher in “aptazyme ON/OFF ratio” value: 1.4 for the first, 1.68 for the second.

First: U7C U8G G9U U10A
Second: U7C U8G G9U U10G
The “aptazyme ON/OFF ratio” value of the first is lower: 1.12 for the first, 1.28 for the second.

Compared with U7C U8G G9U U10C, U7C U8G U10A U11G C12A C13A is lower in “aptazyme ON/OFF ratio” value: 2.72 for the first, 1.12 for the second.

Going from U7C U8G U10A U11G C12A C13U to U7C U8G U10A U11G C12A C13G, the “aptazyme ON/OFF ratio” value rises from 1.12 to 1.13.

First: U7C U8G G9U U10C U11G C12A
Second: U7C U8G G9U U10C U11G C12G
The “aptazyme ON/OFF ratio” value of the first is lower: 1.14 for the first, 1.21 for the second.

Going from U7C U8G G9U U10C U11G C12U to U7C U8G G9U U11A C13G, the “aptazyme ON/OFF ratio” value falls from 1.28 to 1.09.

U7C U8G G9U U11A C13A and U7C U8G G9U U11A C13U are the same in “aptazyme ON/OFF ratio” value: 1.28 for the first, 1.28 for the second.

Going from U7C U8G G9U U10C U11A C12U C13U to U7C U8G G9U U10C U11A C12U C13A, the “aptazyme ON/OFF ratio” value falls from 1.34 to 1.24.

Compared with U7C U8G G9U U10C U11A C12U C13G, U7C U8G U10C C12U C13G is higher in “aptazyme ON/OFF ratio” value: 1.27 for the first, 1.3 for the second.

Going from U7C U8G U10C C12U C13U to U7C U8G U10C C12U C13A, the “aptazyme ON/OFF ratio” value falls from 2.3 to 1.61.

First: U7C U8G U10C C13A
Second: U7C U8G U10C C13U
The “aptazyme ON/OFF ratio” value of the first is higher: 1.86 for the first, 1.54 for the second.

First: U7C U8G U10C C13G
Second: U7C U8G G9U U10A U11A C13G
The “aptazyme ON/OFF ratio” value of the first is higher: 2.71 for the first, 1.09 for the second.

Compared with U7C U8G G9U U10A U11A C13U, U7C U8G G9U U10A U11A C13A is lower in “aptazyme ON/OFF ratio” value: 1.22 for the first, 1.19 for the second.

Going from U7C U8G G9U U11G C12G C13U to U7C U8G G9U U11G C12G C13G, the “aptazyme ON/OFF ratio” value rises from 1.11 to 1.18.

Going from U7C U8G G9U U11G C12G C13A to U7C U8G U10A C12G C13A, the “aptazyme ON/OFF ratio” value rises from 1.1 to 1.13.

First: U7C U8G U10A C12G C13U
Second: U7C U8G U10A C12G C13G
The “aptazyme ON/OFF ratio” value of the first is higher: 1.18 for the first, 1.1 for the second.

Going from U7C U8G U10A U11C C13U to U7C U8G U10A U11C C13G, the “aptazyme ON/OFF ratio” value rises from 1.01 to 1.03.

Going from U7C U8G U10A U11C C13A to U7C U8G U10A U11G C12G C13A, the “aptazyme ON/OFF ratio” value rises from 1.02 to 1.11.

In the case of U7C U8G U10A U11G C12G C13U, the “aptazyme ON/OFF ratio” value is reported as 1.36.
